Source: article PMC9294231, “gC1qR/C1qBP/HABP-1: Structural Analysis of the Trimeric Core Region, Interactions With a Novel Panel of Monoclonal Antibodies, and Their Influence on Binding to FXII” (Frontiers in Immunology, 2022)

Assays:
[1] = biological target: gC1qR-avi, enzymatically biotinylated (human) (UniProt Q07021); test: SPR; enzymatically biotinylated gC1qR-avi or gC1qR-DD-avi captured to 100 RU on an SA chip; FXII or FXIIa injected 1.6 to 800 nM; 25°C, HBS-T with 50 µM ZnCl2; ligand heterogeneity model with two independent binding sites; apparent
[2] = biological target: gC1qR-DD-avi, enzymatically biotinylated (human) (UniProt Q07021); test: as above
[3] = biological target: gC1qR-D2 (loop 2 deletion mutant) (human) (UniProt Q07021); test: SEC; analytical gel filtration of purified gC1qR proteins on Superdex 200 Increase 10/300 GL, compared to size standards (670, 66, 13 kDa)
[4] = biological target: T1, wild-type gC1qR (residues 74-282) (human, UniProt Q07021 74-282); test: SEC; gel filtration on Superdex S200 in PBS (pH 7.4); solution behaviour shown in Figure S1 (not shown to me)
T1 construct: gC1qR/C1qBP/HABP-1, human, residues 74-282 (the mature form of the 282-residue pre-pro protein); Expressed from vector pT7HMT; the tag was removed with TEV protease; also called C1qBP; HABP-1; source: E. coli BL21(DE3), purified (NiNTA, TEV digestion, gel filtration Superdex S200)
T1 sequence (looked up): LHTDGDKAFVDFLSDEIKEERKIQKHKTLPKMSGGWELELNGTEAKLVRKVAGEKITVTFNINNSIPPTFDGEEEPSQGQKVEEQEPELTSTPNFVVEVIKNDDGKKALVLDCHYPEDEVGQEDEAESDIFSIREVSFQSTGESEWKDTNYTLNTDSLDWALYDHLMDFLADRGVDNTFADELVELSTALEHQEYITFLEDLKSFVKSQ

wild-type gC1qR (human) [5] = biological target: wild-type gC1qR (human) (UniProt Q07021); test: SEC; analytical gel filtration (Superdex 200 Increase 10/300 GL) of purified FXII, wild-type gC1qR and gC1qR/FXII in a Zn++-containing buffer, compared to size standards
gC1qR-D1 (human) [6] = biological target: gC1qR-D1 (human) (UniProt Q07021); test: SEC; gel filtration on Superdex S200 in PBS (pH 7.4); solution behaviour shown in Figure S1 (not shown to me)
gC1qR-DD (human) = gC1qR-DD (human) (UniProt Q07021); test: as above
[7] = biological target: HKH-20 HKH-20 peptide (Homo sapiens) (UniProt P01042); test: ITC; settings: cited from earlier work
[8] = biological target: gC1qR-DD (double loop deletion mutant) (human) (UniProt Q07021); test: SEC; analytical gel filtration of purified gC1qR proteins on Superdex 200 Increase 10/300 GL, compared to size standards (670, 66, 13 kDa)
[9] = biological target: gC1qR-D1 (loop 1 deletion mutant) (human) (UniProt Q07021); test: as above
wild-type gC1qR (human) [10] = biological target: wild-type gC1qR (human) (UniProt Q07021); test: as above
gC1qR-D2 (human) [11] = biological target: gC1qR-D2 (human) (UniProt Q07021); test: SEC; gel filtration on Superdex S200 in PBS (pH 7.4); solution behaviour shown in Figure S1 (not shown to me)
gC1qR-D2 (human) [12] = biological target: gC1qR-D2 (human) (UniProt Q07021); test: SPR; gC1qR proteins amine-coupled to a CMD200M chip (gC1qR 361 RU, D1 487 RU, D2 360 RU, DD 874 RU); HKH-20 injected 46.9 nM to 10 µM; 25°C, HBS-T (20 mM HEPES pH 7.4, 140 mM NaCl, 0.005% Tween-20); affinity (dose/response) model, apparent KD
gC1qR-D1 (human) [13] = biological target: gC1qR-D1 (human) (UniProt Q07021); test: as above
[14] = biological target: T1, wild-type gC1qR (residues 74-282); test: as above; settings: both partners purified

activated Factor XIIa (FXIIa) (enzyme)
KD-1 (first binding site) [1]: 0.00027 µM
KD-2 (second binding site) [1]: 0.134 µM
ka-1 (first binding site) [1]: 408000 M⁻¹ s⁻¹
ka-2 (second binding site) [1]: 48200 M⁻¹ s⁻¹
kd-1 (first binding site) [1]: 9e-05 s⁻¹
kd-2 (second binding site) [1]: 0.0063 s⁻¹
KD-1 (first binding site) [2]: 0.00012 µM
KD-2 (second binding site) [2]: 0.178 µM
ka-1 (first binding site) [2]: 1.13e+06 M⁻¹ s⁻¹
ka-2 (second binding site) [2]: 63700 M⁻¹ s⁻¹
kd-1 (first binding site) [2]: 0.000147 s⁻¹
kd-2 (second binding site) [2]: 0.0112 s⁻¹

native coagulation factor XII (FXII) (natural protein)
KD-1 (first binding site) [1]: 0.00485 µM
KD-2 (second binding site) [1]: 0.0976 µM
ka-1 (first binding site) [1]: 676000 M⁻¹ s⁻¹
ka-2 (second binding site) [1]: 23700 M⁻¹ s⁻¹
kd-1 (first binding site) [1]: 0.00316 s⁻¹
kd-2 (second binding site) [1]: 0.0023 s⁻¹
KD-1 (first binding site) [2]: 0.00169 µM
KD-2 (second binding site) [2]: 0.0264 µM
ka-1 (first binding site) [2]: 674000 M⁻¹ s⁻¹
ka-2 (second binding site) [2]: 34800 M⁻¹ s⁻¹
kd-1 (first binding site) [2]: 0.00114 s⁻¹
kd-2 (second binding site) [2]: 0.00091 s⁻¹

gC1qR-D2 (loop 2 deletion mutant) (from UniProt Q07021 74-282) (domain or fragment)
stoichiometry N [3]: 3

wild-type gC1qR (residues 74-282) (from UniProt Q07021 74-282) (natural protein; other documents disagree on this pair)
stoichiometry N [4]: 3

Factor XII (native) (natural protein)
stoichiometry N (FXII monomer per gC1qR trimer) (wild-type gC1qR (human) [5]): 1

gC1qR-D1 (from UniProt Q07021 74-138; Q07021 164-282) (natural protein)
stoichiometry N (gC1qR-D1 (human) [6]): 3

gC1qR-DD (from UniProt Q07021 74-138; Q07021 164-189; Q07021 202-282) (natural protein)
stoichiometry N (gC1qR-DD (human)): 3

gC1qR (from UniProt Q07021)
Kd [7]: 6.3 µM

gC1qR-DD (double loop deletion mutant) (from UniProt Q07021 74-282) (domain or fragment)
stoichiometry N [8]: 3

gC1qR-D1 (loop 1 deletion mutant) (from UniProt Q07021 74-282) (domain or fragment)
stoichiometry N [9]: 3

wild-type gC1qR (from UniProt Q07021 74-282) (domain or fragment; other documents disagree on this pair)
stoichiometry N (wild-type gC1qR (human) [10]): 3

gC1qR-D2 (from UniProt Q07021 74-189; Q07021 202-282) (natural protein)
stoichiometry N (gC1qR-D2 (human) [11]): 3

B1: peptide HKH-20 (peptide)
peptide: HKHGHGHGKHKNKGKKNGKH
notes: The discussion speaks of peptides derived from HMWK residues 493-516 in general; also called HKH-20 peptide; source: synthetic peptide (GenScript)
Kd (gC1qR-D2 (human) [12]): 10 µM
Kd (gC1qR-D1 (human) [13]): 10 µM
Kd [14]: 8.7 µM
